# Source: article PMC3039130 (Structure (London, England : 1993), 2011)
# T1: BirA-tagged, biotinylated mouse JAML ectodomain (Mus musculus, biotin on the BirA-tag (by BirA biotin protein ligase))
# T1 chain: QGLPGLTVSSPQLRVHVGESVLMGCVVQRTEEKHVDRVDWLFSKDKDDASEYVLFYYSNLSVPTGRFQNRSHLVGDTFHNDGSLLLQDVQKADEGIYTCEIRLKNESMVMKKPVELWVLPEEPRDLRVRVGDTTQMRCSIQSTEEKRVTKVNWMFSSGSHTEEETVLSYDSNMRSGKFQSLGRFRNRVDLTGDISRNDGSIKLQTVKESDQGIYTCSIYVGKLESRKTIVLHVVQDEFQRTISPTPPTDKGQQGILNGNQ
# B1: HL4E10 Fab (fragment of the hamster anti-JAML IgG (λ) HL4E10) (Fab, V domains shown)
# VH: QVQLKESGPGLLQPSQTLSLTCTVSGISLSDYGVHWVRQAPGKGLEWMGIIGHAGGTDYNSNLKSRVSISRDTSKSQVFLKLNSLQQEDTAMYFCARHFYTYFDVWGQGIQVTVSS
# VL: SYTLTQPPLVSVALGQKATITCSGDKLSDVYVHWYQQKAGQAPVLVIYEDNRRPSGIPDHFSGSNSGNMATLTISKAQAGDEADYYCQSWDGTNSAWVFGSGTKVTVL
# Biological target: T1, BirA-tagged, biotinylated mouse JAML …
# Experiment: SPR
binder,measurement,value
B1,Kd,~8 nM
same,koff,~0.001 s⁻¹
